Sequences and labels used below:
B1: 2AcK (peptide)
chain: K(Ac)LLK(Ac)HLYH
B2: BRD3-BD1 25-147 (protein)
chain: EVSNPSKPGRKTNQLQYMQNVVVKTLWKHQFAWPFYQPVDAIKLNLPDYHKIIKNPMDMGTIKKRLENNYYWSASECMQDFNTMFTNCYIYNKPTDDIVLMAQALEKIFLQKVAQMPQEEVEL
B3: BRD2-BD1 65-194 (protein)
chain: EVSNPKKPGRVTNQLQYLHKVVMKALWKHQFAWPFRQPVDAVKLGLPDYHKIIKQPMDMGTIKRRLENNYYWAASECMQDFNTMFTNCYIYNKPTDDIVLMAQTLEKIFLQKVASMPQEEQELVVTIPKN

For one assay, the target named is BRD4-BD1 42-168 (Homo sapiens, UniProt O60885). Kind of assay: SPR. A general note: In SPR one partner is held on a chip, and binding of the other changes the refractive index at the surface.
Assay [1] has as its target B1. Kind of assay: ITC. (In general: ITC needs no label: the signal is the heat of the interaction.)
Assay [2] has as its target B1. The assay is described as follows: SPR.

No end group written: not given here.

For orientation: Kd means a measure of binding affinity in units of concentration. In the assay with BRD4-BD1 42-168, B1 displayed a Kd of 1000 nM.

As for B2, the Kd stood at 10000 nM with 2AcK [1] and 2000 nM with 2AcK [2].

The molecule B3 gave a dissociation constant (Kd) in the assay with 2AcK [2] of 2000 nM.

These data come from publication PMC10758951 (2023).
